What was measured:
Assay in all cases: pulldown
[1] = target: T1, PUB1 (Saccharomyces cerevisiae) (UniProt P32588); conditions: 20 nM protein, 1.5 uM RNA pool; 20 mM HEPES pH 7.8, 70 mM KCl, 10 mM NaCl, 10% glycerol, 2 mM DTT, 0.1 ug/uL BSA; 30 min, 4 C
T1 sequence: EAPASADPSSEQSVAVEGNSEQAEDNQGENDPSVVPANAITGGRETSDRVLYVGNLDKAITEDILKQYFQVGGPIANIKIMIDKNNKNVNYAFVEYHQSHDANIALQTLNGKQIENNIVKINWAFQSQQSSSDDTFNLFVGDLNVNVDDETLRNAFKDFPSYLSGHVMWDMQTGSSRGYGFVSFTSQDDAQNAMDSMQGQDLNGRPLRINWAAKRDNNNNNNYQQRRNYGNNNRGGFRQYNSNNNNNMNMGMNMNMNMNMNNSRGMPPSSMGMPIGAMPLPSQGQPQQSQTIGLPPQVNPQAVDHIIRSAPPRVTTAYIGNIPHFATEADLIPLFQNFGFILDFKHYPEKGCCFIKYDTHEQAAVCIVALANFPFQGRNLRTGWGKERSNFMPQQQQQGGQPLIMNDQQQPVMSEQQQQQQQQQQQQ

MSI1 (Homo sapiens) = MSI1 (Homo sapiens) (UniProt O43347); conditions: 20 nM protein, 1.5 uM RNA pool; 20 mM HEPES pH 7.8, 70 mM KCl, 10 mM NaCl, 10% glycerol, 2 mM DTT, 0.1 ug/uL BSA; 30 min, 4 C (protocol of this paper; not …); cited from earlier work
[2] = target: khdrbs1b (Tetraodon nigroviridis) (UniProt H3D6B2); conditions: 20 nM protein, 1.5 uM RNA pool; 20 mM HEPES pH 7.8, 70 mM KCl, 10 mM NaCl, 10% glycerol, 2 mM DTT, 0.1 ug/uL BSA; 30 min, 4 C
[3] = target: T2, tia1 (Tetraodon nigroviridis) (UniProt H3D7H4); conditions: 20 nM protein, 1.5 uM RNA pool; 20 mM HEPES pH 7.8, 70 mM KCl, 10 mM NaCl, 10% glycerol, 2 mM DTT, 0.1 ug/uL BSA; 30 min, 4 C
T2 sequence: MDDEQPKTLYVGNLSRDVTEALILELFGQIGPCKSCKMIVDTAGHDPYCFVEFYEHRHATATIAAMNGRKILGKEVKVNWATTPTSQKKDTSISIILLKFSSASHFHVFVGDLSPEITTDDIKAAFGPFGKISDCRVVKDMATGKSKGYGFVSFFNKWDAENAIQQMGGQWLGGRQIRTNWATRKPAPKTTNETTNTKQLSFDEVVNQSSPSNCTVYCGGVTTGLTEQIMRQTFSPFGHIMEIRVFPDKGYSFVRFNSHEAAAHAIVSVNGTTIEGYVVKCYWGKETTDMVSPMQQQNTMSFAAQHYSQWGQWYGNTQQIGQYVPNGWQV

hnrnpa0b (Danio rerio) = hnrnpa0b (Danio rerio) (UniProt A0A8M1PHH6); conditions: 20 nM protein, 1.5 uM RNA pool; 20 mM HEPES pH 7.8, 70 mM KCl, 10 mM NaCl, 10% glycerol, 2 mM DTT, 0.1 ug/uL BSA; 30 min, 4 C
CELF4 (Homo sapiens) = CELF4 (Homo sapiens) (UniProt Q9BZC1); conditions: 20 nM protein, 1.5 uM RNA pool; 20 mM HEPES pH 7.8, 70 mM KCl, 10 mM NaCl, 10% glycerol, 2 mM DTT, 0.1 ug/uL BSA; 30 min, 4 C (protocol of this paper; not …); cited from earlier work
[4] = target: T3, NAB2 (Saccharomyces cerevisiae) (UniProt P32505); conditions: 20 nM protein, 1.5 uM RNA pool; 20 mM HEPES pH 7.8, 70 mM KCl, 10 mM NaCl, 10% glycerol, 2 mM DTT, 0.1 ug/uL BSA; 30 min, 4 C (protocol of this paper; not …); cited from earlier work
T3 sequence: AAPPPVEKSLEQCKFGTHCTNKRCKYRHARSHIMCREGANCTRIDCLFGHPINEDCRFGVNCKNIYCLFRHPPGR

tardbp (Danio rerio) = target: T4, tardbp (Danio rerio) (UniProt A0ACM8Q011); conditions: 20 nM protein, 1.5 uM RNA pool; 20 mM HEPES pH 7.8, 70 mM KCl, 10 mM NaCl, 10% glycerol, 2 mM DTT, 0.1 ug/uL BSA; 30 min, 4 C
T4 sequence: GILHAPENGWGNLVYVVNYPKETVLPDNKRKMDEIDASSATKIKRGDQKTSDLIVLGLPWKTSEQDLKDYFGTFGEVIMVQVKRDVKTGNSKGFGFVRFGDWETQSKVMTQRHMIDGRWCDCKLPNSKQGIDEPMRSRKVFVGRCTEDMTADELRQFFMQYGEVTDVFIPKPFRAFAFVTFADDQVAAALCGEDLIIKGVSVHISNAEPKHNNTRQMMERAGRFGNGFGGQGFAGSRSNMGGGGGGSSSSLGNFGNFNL

[5] = target: T5, msi (Drosophila melanogaster) (UniProt H9ZJL0); conditions: 20 nM protein, 1.5 uM RNA pool; 20 mM HEPES pH 7.8, 70 mM KCl, 10 mM NaCl, 10% glycerol, 2 mM DTT, 0.1 ug/uL BSA; 30 min, 4 C (protocol of this paper; not …); cited from earlier work
T5 sequence: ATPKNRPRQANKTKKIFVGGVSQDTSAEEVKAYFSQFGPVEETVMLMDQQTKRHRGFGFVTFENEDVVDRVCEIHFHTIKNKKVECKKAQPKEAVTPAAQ

[6] = target: hnrpkl (Tetraodon nigroviridis) (UniProt H3CQ29); conditions: 20 nM protein, 1.5 uM RNA pool; 20 mM HEPES pH 7.8, 70 mM KCl, 10 mM NaCl, 10% glycerol, 2 mM DTT, 0.1 ug/uL BSA; 30 min, 4 C
[7] = target: T6, SCHCODRAFT_104251 ins42_DR;V186I (Schizophyllum commune) (UniProt A0ACF2EEN8); conditions: 20 nM protein, 1.5 uM RNA pool; 20 mM HEPES pH 7.8, 70 mM KCl, 10 mM NaCl, 10% glycerol, 2 mM DTT, 0.1 ug/uL BSA; 30 min, 4 C
T6 sequence: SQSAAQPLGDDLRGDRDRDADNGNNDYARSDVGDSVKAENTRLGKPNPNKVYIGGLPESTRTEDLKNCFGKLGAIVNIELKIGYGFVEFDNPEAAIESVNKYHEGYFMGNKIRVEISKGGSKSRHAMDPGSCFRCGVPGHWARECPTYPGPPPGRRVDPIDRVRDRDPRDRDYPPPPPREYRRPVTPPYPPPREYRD

[8] = target: T7, TIA1 (Tetraodon nigroviridis) (UniProt H3D1J1); conditions: 20 nM protein, 1.5 uM RNA pool; 20 mM HEPES pH 7.8, 70 mM KCl, 10 mM NaCl, 10% glycerol, 2 mM DTT, 0.1 ug/uL BSA; 30 min, 4 C
T7 sequence: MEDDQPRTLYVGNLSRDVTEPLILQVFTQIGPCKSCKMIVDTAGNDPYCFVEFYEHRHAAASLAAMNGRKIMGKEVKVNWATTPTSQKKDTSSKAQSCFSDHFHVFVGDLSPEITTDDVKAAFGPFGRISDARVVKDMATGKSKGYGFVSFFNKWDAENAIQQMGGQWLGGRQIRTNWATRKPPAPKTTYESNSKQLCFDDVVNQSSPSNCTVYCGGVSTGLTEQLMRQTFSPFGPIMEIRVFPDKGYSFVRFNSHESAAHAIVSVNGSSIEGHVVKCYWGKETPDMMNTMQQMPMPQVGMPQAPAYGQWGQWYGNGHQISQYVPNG

Sequence of hnrpkl (Tetraodon nigroviridis) (H3CQ29 entry or part of it): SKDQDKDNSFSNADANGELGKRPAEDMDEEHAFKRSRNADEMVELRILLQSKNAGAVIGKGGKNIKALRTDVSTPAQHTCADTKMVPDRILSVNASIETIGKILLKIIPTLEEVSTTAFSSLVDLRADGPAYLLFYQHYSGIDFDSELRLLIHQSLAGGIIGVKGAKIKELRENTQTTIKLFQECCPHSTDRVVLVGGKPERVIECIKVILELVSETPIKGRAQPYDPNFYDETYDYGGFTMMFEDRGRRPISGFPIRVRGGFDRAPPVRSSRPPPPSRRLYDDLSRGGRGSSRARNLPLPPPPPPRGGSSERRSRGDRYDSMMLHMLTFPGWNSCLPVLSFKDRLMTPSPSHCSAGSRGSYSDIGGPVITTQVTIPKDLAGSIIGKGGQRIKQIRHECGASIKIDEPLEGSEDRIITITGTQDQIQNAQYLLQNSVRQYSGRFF
Sequence of khdrbs1b (Tetraodon nigroviridis) (H3D6B2 entry or part of it): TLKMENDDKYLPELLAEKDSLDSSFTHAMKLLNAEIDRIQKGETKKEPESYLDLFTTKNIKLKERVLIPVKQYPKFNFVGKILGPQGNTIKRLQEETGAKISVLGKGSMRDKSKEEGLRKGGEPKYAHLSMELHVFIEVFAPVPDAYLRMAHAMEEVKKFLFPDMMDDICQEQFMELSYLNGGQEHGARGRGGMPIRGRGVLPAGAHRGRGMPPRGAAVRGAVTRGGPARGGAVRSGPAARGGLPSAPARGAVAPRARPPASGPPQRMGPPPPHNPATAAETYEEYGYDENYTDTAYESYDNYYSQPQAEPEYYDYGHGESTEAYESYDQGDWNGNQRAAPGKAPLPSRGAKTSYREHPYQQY
Sequence of MSI1 (Homo sapiens) (O43347 1-230): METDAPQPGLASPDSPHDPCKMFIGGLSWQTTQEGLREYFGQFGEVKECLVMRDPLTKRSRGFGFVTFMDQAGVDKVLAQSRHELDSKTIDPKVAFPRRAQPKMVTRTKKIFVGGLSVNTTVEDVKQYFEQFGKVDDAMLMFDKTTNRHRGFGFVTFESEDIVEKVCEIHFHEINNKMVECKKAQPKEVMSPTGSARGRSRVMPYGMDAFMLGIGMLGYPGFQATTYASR
Sequence of hnrnpa0b (Danio rerio) (A0A8M1PHH6 entry or part of it): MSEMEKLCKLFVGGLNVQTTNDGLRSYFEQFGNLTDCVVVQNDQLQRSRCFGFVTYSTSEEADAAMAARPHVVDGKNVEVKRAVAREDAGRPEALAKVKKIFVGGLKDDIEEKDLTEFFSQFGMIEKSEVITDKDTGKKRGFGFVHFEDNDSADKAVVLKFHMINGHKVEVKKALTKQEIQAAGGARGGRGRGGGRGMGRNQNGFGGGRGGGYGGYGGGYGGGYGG
Sequence of CELF4 (Homo sapiens) (Q9BZC1 6-486): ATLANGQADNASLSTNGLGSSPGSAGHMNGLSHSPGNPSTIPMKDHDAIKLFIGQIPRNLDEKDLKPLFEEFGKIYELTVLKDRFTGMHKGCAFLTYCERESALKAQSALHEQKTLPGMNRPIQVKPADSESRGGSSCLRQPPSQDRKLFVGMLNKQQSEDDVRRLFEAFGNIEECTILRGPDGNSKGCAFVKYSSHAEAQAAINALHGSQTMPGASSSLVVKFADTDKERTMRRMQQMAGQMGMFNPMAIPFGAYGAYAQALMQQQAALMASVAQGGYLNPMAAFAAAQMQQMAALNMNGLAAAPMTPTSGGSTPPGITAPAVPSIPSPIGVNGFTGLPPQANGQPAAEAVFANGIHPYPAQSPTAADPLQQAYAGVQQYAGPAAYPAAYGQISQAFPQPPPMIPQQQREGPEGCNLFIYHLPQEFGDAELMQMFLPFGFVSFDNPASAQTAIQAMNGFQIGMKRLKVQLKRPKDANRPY

## UUUUUUU [RNAcompete motif RNCMPT01685]
[1]
  binding signal (z-score (mean of top ten 7-mers)): 11.6

## UAGUUAG [RNAcompete motif RNCMPT00041]
MSI1 (Homo sapiens)
  binding signal (z-score (mean of top ten 7-mers)): 9.05

## AUAAAAG [RNAcompete motif RNCMPT01673]
[2]
  binding signal (z-score (mean of top ten 7-mers)): 8.63

## UUUUUUG [RNAcompete motif RNCMPT01674]
[3]
  binding signal (z-score (mean of top ten 7-mers)): 6.08

## UUAGAUAG [RNAcompete motif RNCMPT01667]
hnrnpa0b (Danio rerio)
  binding signal (z-score (mean of top ten 7-mers)): 9.2

## UGUGUG [RNAcompete motif RNCMPT00004]
CELF4 (Homo sapiens)
  binding signal (z-score (mean of top ten 7-mers)): 7.26

## CCUCU [RNAcompete motif RNCMPT00042]
[4]
  binding signal (z-score (mean of top ten 7-mers)): 6.1

## UGAAUGA [RNAcompete motif RNCMPT01664]
Tardbp (Danio rerio)
  binding signal (z-score (mean of top ten 7-mers)): 9.7

## GUAGUU [RNAcompete motif RNCMPT00040]
[5]
  binding signal (z-score (mean of top ten 7-mers)): 12.5

## AAACCCAA [RNAcompete motif RNCMPT01679]
[6]
  binding signal (z-score (mean of top ten 7-mers)): 6.12

## GACUA [RNAcompete motif RNCMPT00866]
[7]
  binding signal (z-score (mean of top ten 7-mers)): 6.58

## UUUUUU [RNAcompete motif RNCMPT01672]
[8]
  binding signal (z-score (mean of top ten 7-mers)): 8.74

— paper PMC12990809
